Experiments:
[1] = target: T1, monkey IL-33 expressed with C-terminal hexahistidine tag (MfIL-33-6His) (cynomolgus monkey (M. fascicularis)); test: SPR (Biacore T-200), 37 C; Fc fusion captured by anti-Fc antibody, MfIL-33-6His injected
T1 construct: also called M. fascicularis IL-33-6His; cynomolgus monkey IL-33
T1 chain: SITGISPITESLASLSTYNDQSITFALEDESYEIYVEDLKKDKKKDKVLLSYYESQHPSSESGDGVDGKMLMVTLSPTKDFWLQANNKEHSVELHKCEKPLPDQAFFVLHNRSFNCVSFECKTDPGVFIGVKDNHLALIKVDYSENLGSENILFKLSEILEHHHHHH
Method: (§1) The Biacore sensor surface was first derivatized by amine coupling a polyclonal rabbit anti-mouse antibody (GE, # BR-1008-38) or with a monoclonal mouse anti-human Fc antibody (GE, # BR-1008-39) to capture IL-33 Trap and receptor proteins with a C-terminal mouse IgG2a Fc tag or a C-terminal human IgG1 Fc tag, respectively. Kinetic experiments were carried out in 0.01 M HEPES pH 7.4, 0.15 M NaCl, 3 mM EDTA, and 0.005% v/v Surfactant Tween-20 (HBST running buffer). Different concentrations of human IL-33, mouse IL-33 or MfIL-33-6His prepared in HBST running buffer (ranging from 60 nM to 27.4 pM, 3-fold dilutions, for Trap proteins and ranging from 60 nM to 0.25 nM, 3-fold dilutions, for ST2 receptor proteins) were injected over the captured IL-33 Trap and receptor protein surfaces at a flow rate of 50 μL/minute. Association of different IL-33 proteins to the different capture surfaces was monitored for 7 minutes for Trap proteins or 4 minutes for ST2 receptor proteins and their dissociation in HBST running buffer was monitored for 14 minutes for Trap proteins or 8 minutes for ST2 receptor proteins. Kinetic association (ka) and dissociation (kd) rate constants were determined by fitting the real-time binding sensorgrams to a 1:1 binding model using Scrubber 2.0c curve-fitting software. Binding dissociation equilibrium constants (KD) and dissociative half-lives (t½) were calculated from the kinetic rate constants as: […]

[2] = target: T2, human IL-33 (R&D Systems, # 3625-IL-010/CF) (human, UniProt O95760 112-270, biotinylated in the blocking ELISA of Example 3 (sites not given)); test: cell-based or functional assay
T2 sequence (looked up): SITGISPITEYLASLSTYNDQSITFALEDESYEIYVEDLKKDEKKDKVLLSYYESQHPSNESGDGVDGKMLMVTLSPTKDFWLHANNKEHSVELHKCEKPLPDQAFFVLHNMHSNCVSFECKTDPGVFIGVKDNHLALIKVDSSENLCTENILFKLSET

[3] = target: T1, monkey IL-33 expressed with C-terminal …; test: cell-based or functional assay
[4] = target: T2, human IL-33 (R&D Systems, # …); test: cell-based or functional assay; remark: listed apart in the source
[5] = target: T3, mouse IL-33 (R&D Systems, # 3626-ML-010/CF) (mouse, UniProt Q8BVZ5 109-266); test: SPR (Biacore T-200), 25 C; Fc fusion captured by anti-Fc antibody, mouse IL-33 injected
T3 construct: Commercial protein; also called mIL-33; mIL33
T3 sequence (looked up): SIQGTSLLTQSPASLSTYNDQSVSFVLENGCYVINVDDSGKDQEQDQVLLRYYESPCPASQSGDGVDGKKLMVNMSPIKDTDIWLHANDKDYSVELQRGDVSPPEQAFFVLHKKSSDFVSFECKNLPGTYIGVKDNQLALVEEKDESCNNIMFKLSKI
Method: as §1

[6] = target: T2, human IL-33 (R&D Systems, # …); test: competition ELISA; antagonist pre-mixed with 20 pM biotin-hIL-33, binding to plate-coated human ST2-Fc; highest concentration tested
Method: The ability of exemplary IL-33 antagonists of the invention to block human IL-33 (hIL-33) binding to the human ST2 receptor was measured using a competition sandwich ELISA. A portion of human ST2 protein ecto domain that was expressed with a C-terminal mouse Fc tag (SEQ ID NO:2) was coated at a concentration of 1 μg/mL in PBS buffer on a 96-well microtiter plate overnight at 4° C. […] Biotinylated hIL-33 protein (R&D systems, #3625-IL/CF) (biot-hIL-33) was added to achieve a constant final concentration of 20 pM to serial dilutions of IL-33 antagonists ranging from 0 to 100 nM. The mixture was incubated for 1 hour at room temperature (RT) before transfer to the hST2-hFc coated microtiter plates. After incubation for 1 hour at RT, the wells were then washed, and plate-bound biot-hIL-33 was detected with HRP-conjugated streptavidin (Thermo Scientific, # N200). All samples were developed with a TMB solution (BD biosciences, # 51-2607KC) to produce a colorimetric reaction and then quenched by acidification with 1M sulfuric acid before measuring absorbance at 450 nm on a Victor X5 plate reader (PerkinElmer). Data analysis was performed using a sigmoidal dose-response model within Prism™ software. […] Maximum blocking values represent the ability of the antagonists to block IL-33 binding relative to baseline. The absorbance measured at the constant amount of hIL-33 on the dose curve was defined as 0% blocking and the absorbance with no added IL-33 was defined as 100% blocking. The absorbance values of the wells containing the highest concentration tested for each antagonist were used to determine the maximum blocking percent.

B1: hST2-hIL1RAcP-mFc (Fc fusion)
chain: KFSKQSWGLENEALIVRCPRQGKPSYTVDWYYSQTNKSIPTQERNRVFASGQLLKFLPAAVADSGIYTCIVRSPTFNRTGYANVTIYKKQSDCNVPDYLMYSTVSGSEKNSKIYCPTIDLYNWTAPLEWFKNCQALQGSRYRAHKSFLVIDNVMTEDAGDYTCKFIHNENGANYSVTATRSFTVKDEQGFSLFPVIGAPAQNEIKEVEIGKNANLTCSACFGKGTQFLAAVLWQLNGTKITDFGEPRIQQEEGQNQSFSNGLACLDMVLRIADVKEEDLLLQYDCLALNLHGLRRHTVRLSRKNPIDHHSSERCDDWGLDTMRQIQVFEDEPARIKCPLFEHFLKFNYSTAHSAGLTLIWYWTRQDRDLEEPINFRLPENRISKEKDVLWFRPTLLNDTGNYTCMLRNTTYCSKVAFPLEVVQKDSCFNSPMKLPVHKLYIEYGIQRITCPNVDGYFPSSVKPTITWYMGCYKIQNFNNVIPEGMNLSFLIALISNNGNYTCVVTYPENGRTFHLTRTLTVKVVGSPKNAVPPVIHSPNDHVVYEKEPGEELLIPCTVYFSFLMDSRNEVWWTIDGKKPDDITIDVTINESISHSRTEDETRTQILSIKKVTSEDLKRSYVCHARSAKGEVAKAAKVKQKVPAPRYTVESGEPRGPTIKPCPPCKCPAPNLLGGPSVFIFPPKIKDVLMISLSPIVTCVVVDVSEDDPDVQISWFVNNVEVHTAQTQTHREDYNSTLRVVSALPIQHQDWMSGKEFKCKVNNKDLPAPIERTISKPKGSVRAPQVYVLPPPEEEMTKKQVTLTCMVTDFMPEDIYVEWTNNGKTELNYKNTEPVLDSDGSYFMYSKLRVEKKNWVERNSYSCSVVHEGLHNHHTTKSFSRTPGK
notes: also called third IL-33 antagonist; human IL-33 Trap
60 nM Monkey IL-33 Bound (RU) [1]: 27 RU | Kd [1]: 0.00329 nM | koff [1]: 4.79e-05 s⁻¹ | kon [1]: 1.45e+07 M⁻¹ s⁻¹ | t1/2 [1]: 4.02 h | IC50 (M), inhibition of 5 pM human IL-33 activation of HEK293/hST2/NFkB-luciferase cells [2]: 1.3e-12 M | IC50 (M), inhibition of 20 pM human IL-33 activation of HEK293/hST2/NFkB-luciferase cells [2]: 1.3e-11 M | IC50 (M), inhibition of 3 pM monkey IL-33 activation of HEK293/hST2/NFkB-luciferase cells [3]: 4.7e-11 M | IC50 (M), inhibition of 5 pM monkey IL-33 activation of HEK293/hST2/NFkB-luciferase cells [3]: 1.3e-12 M | IC50 (M), blocking of IL-33 induced IFN-gamma release from human PBMC, donor 634966 [4]: 2.13e-12 M | IC50 (M), blocking of IL-33 induced IFN-gamma release from human PBMC, donor 655681 [4]: 4.59e-11 M | IC50 (M), blocking of IL-33 induced IFN-gamma release from human PBMC, donor 655682 [4]: 3.97e-12 M | IC50 (M), blocking of IL-33 induced IFN-gamma release from human PBMC, donor 655684 [4]: 6.79e-11 M | IC50 (M), blocking of IL-33 induced IFN-gamma release from human PBMC, donor 698842 [4]: 7.39e-11 M | IC50 (M), blocking of IL-33 induced IFN-gamma release from human PBMC, donor 698843 [4]: 1.73e-11 M | IC50 (M), blocking of IL-33 induced IFN-gamma release from human PBMC, donor 727054 [4]: 3.34e-10 M | IC50 (M), blocking of IL-33 induced IFN-gamma release from human PBMC, donor 727055 [4]: 1.23e-10 M | 60 nM Mouse IL-33 Bound (RU) [5]: 22 RU | Kd [5]: 0.0192 nM | koff [5]: 8.97e-05 s⁻¹ | kon [5]: 4.67e+06 M⁻¹ s⁻¹ | t1/2 [5]: 2.15 h | % Maximum blocking [6]: 97%
